Legend:
human insulin (human) = human insulin (human) (UniProt P01308); assay: polyspecificity ELISA, coated insulin, 100 nM antibody
BSA (bovine) = BSA (bovine) (UniProt P02769); assay: polyspecificity ELISA, BSA-blocked control wells, 100 nM antibody
FcRn = FcRn (UniProt P55899); assay: BLI Octet, biotinylated FcRn on streptavidin sensor, pH 5.0, global 1:1 fit
Sequence of FcRn (P55899 24-297 limits assumed, form in doubt, chain 1 of 2): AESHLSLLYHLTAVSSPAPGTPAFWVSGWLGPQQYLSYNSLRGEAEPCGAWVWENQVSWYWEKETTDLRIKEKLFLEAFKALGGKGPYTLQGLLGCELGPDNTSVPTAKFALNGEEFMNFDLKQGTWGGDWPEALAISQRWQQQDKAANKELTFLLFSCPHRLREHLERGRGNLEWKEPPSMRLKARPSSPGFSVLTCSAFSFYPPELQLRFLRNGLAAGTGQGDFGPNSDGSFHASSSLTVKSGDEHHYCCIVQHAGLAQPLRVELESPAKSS
Sequence of FcRn (chain, as listed by the source limits assumed, form in doubt, chain 2 of 2): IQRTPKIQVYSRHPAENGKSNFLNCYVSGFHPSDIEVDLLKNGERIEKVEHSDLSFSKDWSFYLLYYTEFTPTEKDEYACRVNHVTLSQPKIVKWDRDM

Sequence of human insulin (human) (P01308 25-54 limits assumed, chain 1 of 2): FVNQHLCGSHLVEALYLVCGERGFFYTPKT
Sequence of human insulin (human) (P01308 90-110 limits assumed, chain 2 of 2): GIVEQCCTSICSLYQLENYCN
Sequence of BSA (bovine) (P02769 25-607 limits assumed): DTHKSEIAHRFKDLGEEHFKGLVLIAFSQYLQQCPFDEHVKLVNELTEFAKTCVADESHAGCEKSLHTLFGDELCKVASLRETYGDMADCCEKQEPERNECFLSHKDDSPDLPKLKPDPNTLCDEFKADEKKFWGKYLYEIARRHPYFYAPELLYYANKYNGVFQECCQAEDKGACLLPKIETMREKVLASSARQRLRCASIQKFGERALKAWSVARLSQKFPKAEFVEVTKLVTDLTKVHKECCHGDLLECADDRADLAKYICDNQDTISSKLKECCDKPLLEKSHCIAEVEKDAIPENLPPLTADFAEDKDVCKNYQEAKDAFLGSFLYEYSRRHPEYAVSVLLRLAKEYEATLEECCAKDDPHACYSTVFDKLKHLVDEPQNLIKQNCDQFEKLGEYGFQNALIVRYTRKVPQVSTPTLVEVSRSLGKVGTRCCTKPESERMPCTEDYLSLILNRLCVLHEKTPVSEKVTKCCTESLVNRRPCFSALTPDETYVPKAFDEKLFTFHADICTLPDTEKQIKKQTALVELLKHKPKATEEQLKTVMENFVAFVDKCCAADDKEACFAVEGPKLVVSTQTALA

Ustekinumab (antibody) was tested, and the A450 nm (human insulin (human)) was 0.16, the Norm (signal over AdalimumAb) (human insulin (human)) was 2.29 fold and the A450 nm (BSA (bovine)) was 0.1.

Work on wild type human IgG1 antibody yielded a Kd (FcRn) of 0.13 nM.
